From PMC12063177

Key:
[1] = molecular target: YaxAΔ40B_(weak-50aa) nanopore; assay: single-channel nanopore electrical recording; single pore in a DPhPC planar bilayer; SA 20 nM or BT 50 nM added to cis; -75 mV; 150 mM NaCl, 15 mM TrisHCl pH 7.5
[2] = molecular target: YaxAΔ40B_(strepII-70aa) nanopore; assay: single-channel nanopore electrical recording; apparent constants; SA titrated 1-25 nM in cis in 25% (v/v) mixed-protein solution (602 uM BSA, 35 uM HTf, 100 nM BT, 100 nM CRP before dilution); 80 nM biotin in trans; PDB11PEO8:DPhPC (1:1) hybrid bilayer; -75 mV sweeps protocol; 150 mM NaCl, 15 mM TrisHCl pH 7.5
[3] = molecular target: streptavidin (Streptomyces avidinii) (UniProt P22629); settings: cited from earlier work
streptavidin (Streptomyces avidinii), sequence (P22629 25-183): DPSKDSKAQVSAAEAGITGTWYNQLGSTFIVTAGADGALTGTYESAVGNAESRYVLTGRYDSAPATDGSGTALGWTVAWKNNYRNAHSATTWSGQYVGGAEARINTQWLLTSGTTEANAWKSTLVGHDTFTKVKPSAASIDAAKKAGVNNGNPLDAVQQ

Streptavidin, sequence (P22629 25-183): as above

Row | Substance | dwell time [1] [ms] | Kd [2] [nM] | koff [2] [s⁻¹] | kon [2] [M⁻¹ s⁻¹] | Kd [3] [µM]
1 | Streptavidin (from UniProt P22629 25-183) (natural protein) | 5580 | 23 | 0.2 | 8.77e+06 | –
2 | strepII-peptide | – | – | – | – | 70
